The labels stand for the following.
B1: Regulatory protein rop, P03051 (parent)
chain: MTKQEKTALNMARFIRSQTLTLLEKLNELDADEQADICESLHDHADELYRSCLARFGDDGENL

The variants in this data set derive from B1. As to conditions: Escherichia coli, pH 6, Thermal, DSC, Sodium phosphate/Sodium sulfate 10 mM/10 mM/, reversible: yes, structure 1ROP, whole UniProt chain shown.

What is called Tm is the temperature at which the thermal transition is half complete.

Turning to MTKQEKTALNMARFIRSQTLTLLEKLNELDADEQADICESVHDHADELYRSCLARFGDDGENL, the Tm came to 65.3 °C; the “change of melting temperature, mutant - wild type (higher = more stable)” value is -5.7 °C; the “heat capacity change of unfolding” value amounted to 1.99 kcal/mol/K; the “unfolding enthalpy (calorimetric)” value stood at 110 kcal/mol. The “unfolding enthalpy (van 't Hoff)” value stood at 114 kcal/mol. Further, where the note is “25 °C”, the “ddG of mutation (higher = less stable)” value came to 2.53 kcal/mol, the “heat capacity change of unfolding” value turned out to be 1.99 kcal/mol/K and the unfolding free energy turned out to be 14.6 kcal/mol.
In the case of MTKQEKTALNMARFIRSQTLTLLEKLNELDADEQADICESAHDHADELYRSCLARFGDDGENL, the Tm worked out at 52.9 °C; the “change of melting temperature, mutant - wild type (higher = more stable)” value is -18.1 °C; the “heat capacity change of unfolding” value is 1.65 kcal/mol/K; the “unfolding enthalpy (calorimetric)” value turned out to be 80.1 kcal/mol. Moreover, the “unfolding enthalpy (van 't Hoff)” value was found to be 92.8 kcal/mol. Moreover, for the setting “25 °C”, the “ddG of mutation (higher = less stable)” value amounted to 6.12 kcal/mol, the “heat capacity change of unfolding” value stood at 1.65 kcal/mol/K and the unfolding free energy was 11 kcal/mol.

The record behind these values is FireProtDB (doi:10.1002/prot.340230110).
